Series [1] deals with dSpRY (catalytically inactive SpRY Cas9) (Streptococcus pyogenes) (UniProt Q99ZW2). In words: single-molecule AuRBT (baseline twist shift, Langmuir fit). The note with it: effective Kd for off-target binding on the tether; RNP with sgRNA3; EMSA: 20 mM HEPES pH 7.5, 100 mM KCl, 10 mM MgCl2, 1% glycerol, 0.5 mM DTT (37 C for plasmid EMSA); footprinting: 20 mM Tris pH 7.9, 24 mM KCl, 5 mM MgCl2 ….

Series [2] has the same target. As to the kind of experiment: single-molecule AuRBT (hyperbolic fit of kC-I vs [RNP]). The note with it: EMSA: 20 mM HEPES pH 7.5, 100 mM KCl, 10 mM MgCl2, 1% glycerol, 0.5 mM DTT (37 C for plasmid EMSA); footprinting: 20 mM Tris pH 7.9, 24 mM KCl, 5 mM MgCl2 …. Background: Mobility shift assays separate free from complexed probe on a gel.
In series [3] the target is dCas9 (catalytically inactive SpyCas9) D10A;H840A (Streptococcus pyogenes) (UniProt Q99ZW2). In words: single-molecule AuRBT (kC-I linear, no saturation). The note with it: initial binding Kd,init; >1 uM proposed from literature; R-loop forms; EMSA: 20 mM HEPES pH 7.5, 100 mM KCl, 10 mM MgCl2, 1% glycerol, 0.5 mM DTT (37 C for plasmid EMSA); footprinting: 20 mM Tris pH 7.9, 24 mM KCl, 5 mM MgCl2 ….

For series [4], the target named is dSpRY (catalytically inactive SpRY Cas9) (Streptococcus pyogenes) (UniProt Q99ZW2). In words: EMSA. The note with it: 40x plasmid competitor; 100 nM RNP, 10 nM DNA; EMSA: 20 mM HEPES pH 7.5, 100 mM KCl, 10 mM MgCl2, 1% glycerol, 0.5 mM DTT (37 C for plasmid EMSA); footprinting: 20 mM Tris pH 7.9, 24 mM KCl, 5 mM MgCl2 ….

Kd and binding signal data for three sequences are collected here from publication PMC12258621.

The term Kd denotes the constant that tells how readily two partners part at equilibrium.

As to “GGCUGCGUAUUUCUACUCUGUUGUUUUAGAGCUAGAAAUAGCAAGUUAAAAUAAGGCUAGUCCGUUAUCAACUUGAAAAAGUGGCACCGAGUCGGUGCUUCG / GTCATTGTCGCGAAGTGCAGCGAGATCGCGTTTGTACTCCAAACAGAGTAGAAATACGCAGAGCAGCGATTTCTCGTGTGCAGACA / CGAAGCACCGACTCGGTGCCACTTTTTCAAGTTGATAACGGACTAGCCTTATTTTAACTTGCTATTTCTAGCTCTAAAACAACAGAGTAGAAATACGCAGCC [sgRNA3 + Target1 NGG DNA tether]”, the results for the Kd in series [1], in series [2] and in series [3] were 0.015 µM, 0.01 µM and over 0.08 µM, respectively.

Consider “GGGACGCAUAAAGAUGAGACAAGUUUUAGAGCUAGAAAUAGCAAGUUAAAAUAAGGCUAGUCCGUUAUCAACUUGAAAAAGUGGCACCGAGUCGGUGCUUCG / CGCTCATGCTGACGCATAAAGATGAGACAATGGCGATTACAGTACGTGCG / CGCACGTACTGTAATCGCCATTGTCTCATCTTTATGCGTCAGCATGAGCG [sgRNA2 + matched target duplex (0-20 bp)]”, for which the binding signal in series [4] was determined as 2 % bound.

Consider “GGGACGCAUAAAGAUGAGACAAGUUUUAGAGCUAGAAAUAGCAAGUUAAAAUAAGGCUAGUCCGUUAUCAACUUGAAAAAGUGGCACCGAGUCGGUGCUUCG / CGCTCATGCTGACGCATAAAGATGAGAGTTTGGCGATTACAGTACGTGCG / CGCACGTACTGTAATCGCCATTGTCTCATCTTTATGCGTCAGCATGAGCG [sgRNA2 + target duplex with MM bubble next to PAM (3-20 bp)]”, for which the binding signal in series [4] was determined as 29 % bound.
